We go through three molecules from patent US20250250357A1 (NANJING ZAIMING PHARMACEUTICAL, published 2025).

In general, EC50 refers to the concentration at which the effect is half-maximal. Lower therefore signals higher potency in that assay. As usually defined, the Kd is the free concentration of one partner at which half of the binding sites on the other are occupied at equilibrium, for simple one-to-one binding. One may read the koff as the rate constant with which the complex falls apart. A high value points to a short-lived complex. The kon is a measure of how fast the partners come together.

The labels stand for the following.
B1: S009-F8-4.5 (antibody, human IgG1, kappa, V domains shown)
VH: QVQLQQPGAELVKPGASVKLSCKASGYTFTIYWMHWVKQRPGQGLEWIGMIHPNSGNTNYNEKFKSKATLTVDKSSSTAYMQLSSLTSEDSAVYYCSLIHWYFDVWGTGTTVTVSS
VL: QIVLTQSPAIMSASPGEKVTMTCSASSSVSYMYWYQQKPGSSPRLLIYDTSNLASGVPVRFSGSGSGTSYSLTISRMEAEDAATYYCQQWSSYPLTFGAGTKLELKR
notes: human-murine chimeric antibody, human IgG1/kappa constant regions
B2: S009-F8-18.9 (antibody, human IgG1, kappa, V domains shown)
VH: EFQLQQSGPELVKPGASVKISCKASGYSFTDYNMNWVKQSNGKSLEWIGIINPNYGTTSYNQKFKGRATLTVDQSSSTAYVQLNSLTSEDSAVYYCARGGYDNEAMDYWGQGTSVTVSS
VL: QIVLTQSPAIMSASPGEKVTMTCSASSSVSYMHWYQQKSGTSPKRWIYDTSKLASGVPARFSGSGSGTSYSLTISSMEAEDAATYYCQQWSSNPPTFGAGTKLELKR
notes: as for B1
B3: S009-F8-27.1 (antibody, human IgG1, kappa, V domains shown)
VH: EVQLVESGGGLVKPGGSLKLSCAASGFTFSSYAMSWVRQTPEKRLEWVATISDGGNYTYYPDNVKGRFTISRDNAKNNLYLQMSHLKSEDTAMYYCAGDRGYPYAMDSWGQGTSVTVSS
VL: NIMMTQSPSSLAVSAGEKVTMSCKSSQSVLYSSNQKNYLAWYQQKPGQSPKLLIYWASTRESGVPDRFTGSGSGTDFTLTISNVHAEDLAVYYCHQYLSSLTFGAGTKLELKR
notes: as for B1

T2 sequence (Q13421 495-614): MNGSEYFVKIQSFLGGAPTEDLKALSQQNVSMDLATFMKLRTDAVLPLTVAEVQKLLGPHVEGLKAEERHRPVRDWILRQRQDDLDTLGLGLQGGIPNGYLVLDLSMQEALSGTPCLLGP
T3 sequence (Q13421 other isoform, or with tags, fused parts or gaps): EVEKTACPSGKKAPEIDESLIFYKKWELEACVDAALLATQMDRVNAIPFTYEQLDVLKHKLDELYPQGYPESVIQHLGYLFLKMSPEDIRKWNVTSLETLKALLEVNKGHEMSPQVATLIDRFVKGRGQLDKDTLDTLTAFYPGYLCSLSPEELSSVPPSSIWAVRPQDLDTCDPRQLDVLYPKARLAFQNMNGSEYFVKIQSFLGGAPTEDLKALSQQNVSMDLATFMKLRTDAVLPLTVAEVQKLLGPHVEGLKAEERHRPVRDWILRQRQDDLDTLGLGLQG

The target in the first assay is T1, human MSLN protein endogenously expressed on OVCAR3 tumor cells (human, UniProt Q13421 296-598).
T1 construct: whole, on cells; endogenous expression on a tumor cell line; also called human mesothelin
T1 sequence (Q13421 other isoform, or with tags, fused parts or gaps): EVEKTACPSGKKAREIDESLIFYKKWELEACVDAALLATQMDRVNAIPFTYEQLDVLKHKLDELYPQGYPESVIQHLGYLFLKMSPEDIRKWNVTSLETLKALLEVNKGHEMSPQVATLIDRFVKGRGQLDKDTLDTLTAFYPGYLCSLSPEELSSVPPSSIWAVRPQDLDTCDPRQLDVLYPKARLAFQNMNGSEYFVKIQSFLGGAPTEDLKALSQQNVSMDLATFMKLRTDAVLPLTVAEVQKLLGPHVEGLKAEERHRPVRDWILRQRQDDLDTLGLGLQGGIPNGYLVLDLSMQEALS
The assay is described as follows: FACS on OVCAR3 cells.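 Further: flow cytometry of chimeric antibody binding to OVCAR3 cells, 2 h on ice, read as cellular mean fluorescence intensity.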
Experimental: (§1) The desired cells were expanded to the logarithmic growth phase in a T-75 cell culture flask. […] After the cells from the previous step were subjected to cell counting, the cell pellet was resuspended to 2×10⁶ cells/mL in a blocking buffer of [PBS+2% (w/w) BSA] and added into a 96-well FACS reaction plate at 50 μL/well. A chimeric antibody (a sample to be tested) was added at 50 μL/well, and the plate was incubated on ice for 2 h. […] After the plate was centrifuged and washed 5 times with a PBST buffer, assay and analysis were performed by FACS (FACS CantoII, purchased from BD). Data analysis was performed by software (Flowjo) to obtain the mean fluorescence intensity (MFI) of the cells.
As to B1, the midpoint of the response, the EC50, lay at 4.93 nM and the “Maximum mean fluorescence intensity” value came to 14000.

For the molecule B2, the EC50 amounted to 24.1 nM and the “Maximum mean fluorescence intensity” value is 10800.

Regarding B3, the EC50 was found to be 77.9 nM and the “Maximum mean fluorescence intensity” value is 7620.

Another assay addresses T2, human MSLN-R3 protein expressed on HEK293T cells (HEK293T-hMSLN-R3) (human, UniProt Q13421 487-606).
T2 construct: C-terminal limit uncertain
The assay is described as follows: FACS on HEK293T-hMSLN-R3 cells.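 Further: chimeric antibodies incubated with cells on ice for 2 h, binding read by flow cytometry as mean fluorescence intensity.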
Experimental: as §1
Regarding B1, the “Maximum mean fluorescence intensity” value was 192 and the binding result is recorded as “no binding”.

For the molecule B2, the “Maximum mean fluorescence intensity” value amounted to 131 and the binding result is recorded as “no binding”.

B3: the “Maximum mean fluorescence intensity” value worked out at 120 and the binding result is given as “no binding”.

Another assay addresses T3, human MSLN-FL-his protein (human, UniProt Q13421 296-580).
T3 construct: made in HEK293E cells, purified on nickel column; also called hMSLN-FL-his; human MSLN full-length protein; not shown: His tag
The experiment in a line: competitive ELISA; row F8-4.5.
As for B1, the competition rate turned out to be 97.5%.

On to B2, for which the competition rate was 83.3%.

With B3, the competition rate amounted to 92%.

For the next assay, the target named is T3, human MSLN-FL-his protein. The experiment in a line: competitive ELISA; row F8-7.5.
Experimental: (§2) In order to identify antigen-binding sites of antibodies, MSLN chimeric antibodies were grouped using competitive ELISA.
(§3) The chimeric antibodies were diluted to 2 μg/mL with PBS and allowed to coat 96-well high-adsorption ELISA plates at 50 μL/well. After the plates were coated at 4° C. overnight, 250 μL of a blocking buffer (PBS containing 2% (w/w) BSA) was added for two hours of blocking at room temperature. 40 μg/mL of the antibodies to be tested were added, and then the human MSLN-FL-His protein with an EC₈₀ concentration corresponding to each of the antibodies to be tested was added for incubation for 2 h. The plates were washed 5 times with PBS, an HRP-labeled anti-His secondary antibody (purchased from Genescript, Cat. No. A00612) was then added for incubation for 1 h, and the plates were washed 5 times again. A TMB substrate was added at 50 μL/well, and after 10 minutes of incubation at room temperature, a stop solution (1.0 M HCl) was added at 50 μL/well. OD₄₅₀ nm values were read using an ELISA plate reader (Insight, purchased from PerkinElmer), and the competition rate between the antibodies was calculated according to the OD₄₅₀ nm values using a formula.
Turning to B1, the competition rate was 23.6%.

In the case of B2, the competition rate is -116%.

As to B3, the competition rate was -9.43%.

The target in another assay is T3, human MSLN-FL-his protein. The assay is described as follows: competitive ELISA; row Tab021. (In general: In an ELISA, binding on a coated surface is turned into a signal by an enzyme label.)
Experimental: as §2, §3
As for B1, the competition rate came to 9.76%.

Take B2: the competition rate stood at 2.63%.

As to B3, the competition rate came to 12.2%.

A further assay deals with T3, human MSLN-FL-his protein. The experiment in a line: competitive ELISA; row Tab142.
Experimental: as §2, §3
B1: the competition rate amounted to 97.8%.

In the case of B2, the competition rate was 85.5%.

Consider B3, for which the competition rate amounted to 86.2%.

The target of a further assay is T3, human MSLN-FL-his protein. The assay is described as follows: competitive ELISA; row F8-13.8.
Experimental: as §2, §3
In the case of B1, the competition rate came to 95.8%.

Consider B2, for which the competition rate is 77.5%.

As to B3, the competition rate stood at 74.6%.

A further assay has as its target T3, human MSLN-FL-his protein. The experiment in a line: competitive ELISA; row F8-18.9.
Experimental: as §2, §3
Turning to B1, the competition rate was determined as 8.32%.

On to B2, for which the competition rate worked out at 6.6%.

Consider B3, for which the competition rate is -2.77%.

The target of the next assay is T3, human MSLN-FL-his protein. The experiment in a line: competitive ELISA; row F8-27.1.
Experimental: as §2, §3
Take B1: the competition rate worked out at 99.8%.

As for B2, the competition rate was determined as 96.8%.

B3: the competition rate was 95.3%.

For the next assay, the target named is T3, human MSLN-FL-his protein. The assay is described as follows: competitive ELISA; row F8-5.15.
Experimental: as §2, §3
As for B1, the competition rate was 100%.

Consider B2, for which the competition rate was 99.7%.

In the case of B3, the competition rate came out at 99.8%.

The next assay addresses T3, human MSLN-FL-his protein. The experiment in a line: competitive ELISA; row F8-12.13.
Experimental: as §2, §3
Consider B1, for which the competition rate came out at 98.9%.

On to B2, for which the competition rate turned out to be 97.2%.

As to B3, the competition rate is 98.7%.

For another assay, the target named is T3, human MSLN-FL-his protein. The assay is described as follows: competitive ELISA; row F8-15.19.
Experimental: as §2, §3
In the case of B1, the competition rate is 100%.

For B2, the competition rate was found to be 99.5%.

Consider B3, for which the competition rate was found to be 99.2%.

Another assay deals with T3, human MSLN-FL-his protein. The assay is described as follows: competitive ELISA; row F8-19.21.
Experimental: as §2, §3
Consider B1, for which the competition rate amounted to 98.9%.

In the case of B2, the competition rate was 91.3%.

Take B3: the competition rate is 90.2%.

The next assay deals with T3, human MSLN-FL-his protein. The assay is described as follows: competitive ELISA; row F8-31.22.
Experimental: as §2, §3
On to B1, for which the competition rate is 89.7%.

Regarding B2, the competition rate amounted to 98%.

For B3, the competition rate is -13.1%.

The target of the next assay is T3, human MSLN-FL-his protein. The assay is described as follows: SPR (Biacore), antibody captured on Protein A chip.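 Further: flow cell at 25 °C, antigen injected for 240 s at five concentrations from 200 nM downward, dissociation followed up to 600 s, double-referenced, fitted with Langmuir 1:1 model.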 For orientation: SPR reads the build-up and loss of mass on a sensor chip optically.
Take B1: binding was put at a Kd of 0.824 nM, the koff turned out to be 0.000599 s⁻¹ and the kon was determined as 727000 M⁻¹ s⁻¹.

In the case of B2, the Kd came out at 3.17 nM, the koff came out at 0.000876 s⁻¹ and the kon was 276000 M⁻¹ s⁻¹.

On to B3, for which the Kd worked out at 1.95 nM, the koff was 0.000234 s⁻¹ and the kon was found to be 120000 M⁻¹ s⁻¹.
